This note sets out measurements from patent US20140363428A1.

Assay [1] concerns the target human IgE (human). Briefly: SPR Biacore T200, 37 C; pH 7.4, […] Ca. (SPR reads the build-up and loss of mass on a sensor chip optically.)
The target of assay [2] is human IgE (human). Briefly: SPR Biacore T200, 37 C; pH 5.8, […] Ca.
Assay [3] has as its target human IgE (human). Description: SPR Biacore T200, 37 C; ratio of KD, pH/Ca dependency.
For assay [4], the target named is human IgE (human). Briefly: SPR Biacore T200, 37 C; pH 5.8, 3 microM Ca.
Assay [5] has as its target human IgE (human). Briefly: SPR Biacore T200, 37 C; ratio of KD, pH dependency.

human IgE (human), sequence (heavy, as listed by the source, chain 1 of 2, other chains not shown): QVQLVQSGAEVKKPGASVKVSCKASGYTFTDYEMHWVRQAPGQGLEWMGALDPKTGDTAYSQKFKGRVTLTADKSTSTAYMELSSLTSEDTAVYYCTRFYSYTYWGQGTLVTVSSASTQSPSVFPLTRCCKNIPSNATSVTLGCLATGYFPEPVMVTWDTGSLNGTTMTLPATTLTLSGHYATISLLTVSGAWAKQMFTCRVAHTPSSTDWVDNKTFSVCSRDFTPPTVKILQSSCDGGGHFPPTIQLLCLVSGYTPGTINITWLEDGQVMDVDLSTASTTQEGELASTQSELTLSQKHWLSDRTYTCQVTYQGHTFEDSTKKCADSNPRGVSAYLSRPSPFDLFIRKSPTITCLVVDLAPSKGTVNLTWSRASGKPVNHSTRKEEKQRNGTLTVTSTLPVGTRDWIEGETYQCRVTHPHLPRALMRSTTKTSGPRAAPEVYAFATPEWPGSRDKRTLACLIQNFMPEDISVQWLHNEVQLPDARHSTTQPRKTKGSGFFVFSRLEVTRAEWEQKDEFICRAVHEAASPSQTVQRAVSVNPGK

One may read the Kd as the equilibrium constant for the complex coming apart. High values mean a looser complex, low ones a tighter complex. For orientation: koff means a measure of how fast the partners let go of each other. A high value points to fast dissociation. For orientation: kon means the second-order rate constant of association. Consider “Xolair (omalizumab; Novartis) (antibody)”, for which the Kd came out at 4.4 nM in the assay with human IgE (human) [1], 9.9 nM in the assay with human IgE (human) [2] and 13 nM in the assay with human IgE (human) [4]. The koff with human IgE (human) [1] turned out to be 0.011 s⁻¹; in the assay with human IgE (human) [2], 0.024 s⁻¹; with human IgE (human) [4], 0.017 s⁻¹. The kon stood at 2.5e+06 M⁻¹ s⁻¹ in the assay with human IgE (human) [1], 2.4e+06 M⁻¹ s⁻¹ with human IgE (human) [2] and 1.4e+06 M⁻¹ s⁻¹ with human IgE (human) [4]. For the same substance, the KD (pH 5.8, 3 microM Ca)/KD (pH 7.4, 1.2 mM Ca) with human IgE (human) [3] is 2.9. For the same substance, the KD (pH 5.8, 1.2 mM Ca)/KD (pH 7.4, 1.2 mM Ca) in the assay with human IgE (human) [5] was determined as 2.3.
